Reference: the RNAGym collection of RNA variant scans (doi:10.1093/molbev/msab373)

B1: Azoarcus group I ribozyme (parent)
chain: GUGCCUUGCGCCGGGAAACCACGCAAGGGAUGGUGUCAAAUUCGGCGAAACCUAAGCGCCCGCCCGGGCGUAUGGCAACGCCGAGCCAAGCUUCGGCGCCUGCGCCGAUGAAGGUGUAGAGACUAGACGGCACCCACCUAAGGCAAACGCUAUGGUGAAGGCAUAGUCCAGGGAGUGGCGAAAGUCACACAAACCGG

Variants of: B1
Test: reverse-splicing fitness (ratio to wild type); higher = more active; in vitro selection; Mg2+ level not given
Outline: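 An in vitro group I ribozyme library with randomized positions was T7-transcribed and gel-purified. In triplicate, 10 pmol RNA in EPPS pH 7.5 was reacted with 50 pmoles of a 30-nt RNA substrate for 1 h at 37 °C across several added MgCl2 levels (1–48 mM), then stopped with EDTA. Products were reverse transcribed from a substrate-complementary primer, PCR-amplified and sequenced (HiSeq 4000). Fitness is a variant's read proportion after selection over that before, normalised to wild type.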
Variant A111G A120U A145C C150G U176A has a reverse-splicing fitness of 0.0114.
A111G A120U A145C C150G U176G showed a reverse-splicing fitness of 0.0047.
A111G A120U A145C C150G U176C gave a reverse-splicing fitness of 0.0153.
Variant A111G A120U A145C C150G C169G has a reverse-splicing fitness of 0.0104.
In the case of A111G A120U A145C C150G C169A, the reverse-splicing fitness is reported as 0.00293.
Variant A111G A120U A145C C150G C169U has a reverse-splicing fitness of 0.014.
A111G A120U A145G C150G C169U U176C showed a reverse-splicing fitness of 0.00697.
For A111G A120U A145G C150G C169U U176A, the reverse-splicing fitness was 0.00497.
In the case of A111G A120U A145G C150G C169U U176G, the reverse-splicing fitness is reported as 0.00319.
For A111G A120U A145U C150A U176A, the reverse-splicing fitness was 0.0447.
A111G A120U A145U C150A U176G showed a reverse-splicing fitness of 0.018.
Variant A111G A120U A145U C150A U176C has a reverse-splicing fitness of 0.0372.
Variant A111G A120U A145C C150U C169G U176A has a reverse-splicing fitness of 0.00436.
For A111G A120U A145C C150U C169G U176G, the reverse-splicing fitness was 0.00177.
A111G A120U A145C C150U C169G U176C gave a reverse-splicing fitness of 0.0028.
For A111G A120U A145G C169G, the reverse-splicing fitness was 0.087.
A111G A120U A145G C169U showed a reverse-splicing fitness of 0.126.
A111G A120U A145G C169A showed a reverse-splicing fitness of 0.00517.
In the case of A111G A120U A145G C150U U176G, the reverse-splicing fitness is reported as 0.0427.
With A111G A120U A145G C150U U176A the reverse-splicing fitness was 0.237.
In the case of A111G A120U A145G C150U U176C, the reverse-splicing fitness is reported as 0.285.
For A111G A120U A145C C150G C169G U176A, the reverse-splicing fitness was 0.00296.
Work on A111G A120U A145C C150G C169G U176C yielded a reverse-splicing fitness of 0.0019.
A111G A120U A145C C150G C169G U176G gave a reverse-splicing fitness of 0.00213.
In the case of A111G A120U A145G C150U C169G U176G, the reverse-splicing fitness is reported as 0.00263.
In the case of A111G A120U A145G C150U C169G U176A, the reverse-splicing fitness is reported as 0.0113.
For A111G A120U A145G C150U C169G U176C, the reverse-splicing fitness was 0.0118.
With A111G A120U A145C C150U U176G the reverse-splicing fitness was 0.0448.
Variant A111G A120U A145C C150U U176C has a reverse-splicing fitness of 0.055.
A111G A120U A145C C150U U176A showed a reverse-splicing fitness of 0.0932.
A111G A120U A145C C150G C169A U176A showed a reverse-splicing fitness of 0.00204.
With A111G A120U A145C C150G C169A U176C the reverse-splicing fitness was 0.00245.
A111G A120U A145C C150G C169A U176G gave a reverse-splicing fitness of 0.00216.
In the case of A111G A120U A145C C169A U176A, the reverse-splicing fitness is reported as 0.00226.
In the case of A111G A120U A145C C169A U176C, the reverse-splicing fitness is reported as 0.0018.
A111G A120U A145C C169A U176G showed a reverse-splicing fitness of 0.0014.
In the case of A111G A120U A145G C169U U176A, the reverse-splicing fitness is reported as 0.0227.
A111G A120U A145G C169U U176G gave a reverse-splicing fitness of 0.0035.
With A111G A120U A145G C169U U176C the reverse-splicing fitness was 0.0414.
Variant A111G A120U A145U C150A has a reverse-splicing fitness of 0.0903.
Variant A111G A120U A145U C150G has a reverse-splicing fitness of 0.105.
For A111G A120U A145U C150G C169A U176G, the reverse-splicing fitness was 0.0022.
A111G A120U A145U C150G C169A U176A gave a reverse-splicing fitness of 0.00281.
Variant A111G A120U A145U C150G C169A U176C has a reverse-splicing fitness of 0.00355.
Work on A111G A120U A145C C150A C169A yielded a reverse-splicing fitness of 0.00208.
Work on A111G A120U A145C C150A C169U yielded a reverse-splicing fitness of 0.00746.
In the case of A111G A120U A145C C150A C169G, the reverse-splicing fitness is reported as 0.0049.
A111G A120G C169G U176C showed a reverse-splicing fitness of 0.119.
With A111G A120G C169G U176G the reverse-splicing fitness was 0.00692.
In the case of A111G A120G C169G U176A, the reverse-splicing fitness is reported as 0.09.
A111G A120U showed a reverse-splicing fitness of 0.785.
A111G A120U A145G C150G C169G U176A gave a reverse-splicing fitness of 0.00719.
With A111G A120U A145G C150G C169G U176C the reverse-splicing fitness was 0.00396.
Variant A111G A120U A145G C150G C169G U176G has a reverse-splicing fitness of 0.00311.
Variant A111G A120U A145G C150U C169U U176G has a reverse-splicing fitness of 0.00334.
Variant A111G A120U A145G C150U C169U U176A has a reverse-splicing fitness of 0.0147.
For A111G A120U A145G C150U C169U U176C, the reverse-splicing fitness was 0.0273.
With A111G A120G U176C the reverse-splicing fitness was 0.117.
Variant A111G A120G U176A has a reverse-splicing fitness of 0.0836.
A111G A120G U176G gave a reverse-splicing fitness of 0.0093.
Variant A111G A120U A145G C150U C169A U176G has a reverse-splicing fitness of 0.00246.
A111G A120U A145G C150U C169A U176C showed a reverse-splicing fitness of 0.00357.
A111G A120U A145G C150U C169A U176A showed a reverse-splicing fitness of 0.00469.
For A111G A120U A145C C150U C169U U176A, the reverse-splicing fitness was 0.00601.
A111G A120U A145C C150U C169U U176C gave a reverse-splicing fitness of 0.00282.
With A111G A120U A145C C150U C169U U176G the reverse-splicing fitness was 0.00212.
For A111G A120U A145G C150G C169A, the reverse-splicing fitness was 0.00794.
With A111G A120U A145G C150G C169G the reverse-splicing fitness was 0.0123.
Work on A111G A120U A145G C150G C169U yielded a reverse-splicing fitness of 0.0149.
Variant A111G A120U A145C C150A C169A U176A has a reverse-splicing fitness of 0.00282.
In the case of A111G A120U A145C C150A C169A U176G, the reverse-splicing fitness is reported as 0.00177.
With A111G A120U A145C C150A C169A U176C the reverse-splicing fitness was 0.00206.
A111G A120U A145C C150G showed a reverse-splicing fitness of 0.116.
A111G A120U A145C C150U gave a reverse-splicing fitness of 0.264.
Variant A111G A120U A145C C150A has a reverse-splicing fitness of 0.0434.
Variant A111G A120U A145G C150A has a reverse-splicing fitness of 0.148.
A111G A120U A145G C150U showed a reverse-splicing fitness of 0.611.
Variant A111G A120U A145G C150G has a reverse-splicing fitness of 0.0771.
Variant A111G A120U A145G C150A C169A U176C has a reverse-splicing fitness of 0.00368.
For A111G A120U A145G C150A C169A U176G, the reverse-splicing fitness was 0.00273.
Variant A111G A120U A145G C150A C169A U176A has a reverse-splicing fitness of 0.00539.
A111G A120G C169U gave a reverse-splicing fitness of 0.236.
In the case of A111G A120G C169G, the reverse-splicing fitness is reported as 0.321.
